This note sets out measurements from patent US20240084003A1 (SIMCERE ZAIMING PHARMACEUTICAL, published 2024).

The target in test [1] is T1, monkey CD22 on HEK293T-monkey CD22 cells (monkey).
T1 construct: full-length entry expressed on stably transfected HEK293T cells
T1 chain: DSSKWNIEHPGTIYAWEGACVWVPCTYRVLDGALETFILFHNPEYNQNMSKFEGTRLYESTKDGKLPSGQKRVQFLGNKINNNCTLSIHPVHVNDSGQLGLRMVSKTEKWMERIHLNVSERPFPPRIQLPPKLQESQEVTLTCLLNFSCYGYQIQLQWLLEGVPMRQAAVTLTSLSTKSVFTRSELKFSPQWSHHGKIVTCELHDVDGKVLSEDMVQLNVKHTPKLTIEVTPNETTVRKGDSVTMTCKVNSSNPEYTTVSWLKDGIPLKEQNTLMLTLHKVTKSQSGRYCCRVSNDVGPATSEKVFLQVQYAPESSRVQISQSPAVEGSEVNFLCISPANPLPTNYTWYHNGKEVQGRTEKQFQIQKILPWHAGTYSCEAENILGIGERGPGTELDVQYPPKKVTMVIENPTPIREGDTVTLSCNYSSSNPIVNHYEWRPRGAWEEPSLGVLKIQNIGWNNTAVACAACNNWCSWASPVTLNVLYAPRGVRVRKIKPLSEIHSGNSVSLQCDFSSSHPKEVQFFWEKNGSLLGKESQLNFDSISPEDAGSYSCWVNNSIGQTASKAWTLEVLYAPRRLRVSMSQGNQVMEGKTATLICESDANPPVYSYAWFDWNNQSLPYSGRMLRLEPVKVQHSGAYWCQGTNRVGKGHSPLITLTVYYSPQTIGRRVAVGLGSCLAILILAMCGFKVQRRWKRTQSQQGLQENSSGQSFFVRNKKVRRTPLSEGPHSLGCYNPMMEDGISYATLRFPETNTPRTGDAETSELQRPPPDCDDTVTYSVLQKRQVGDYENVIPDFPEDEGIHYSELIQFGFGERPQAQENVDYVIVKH
Put plainly: FACS, HEK293T-monkey CD22 cells. As for the experimental part: (§1) For suspension cell Raji, the medium supernatant was directly centrifuged and discarded, and the cell pellet was washed 2 times with PBS. After counting the cells in the previous step, the cell pellet was resuspended with [PBS+2% (w/w) BSA] blocking solution to 2×10⁶ cells/ml, and added to a 96-well FACS reaction plate at 50 μl/well, and then the chimeric antibody test sample was added at 50 μl/well, and incubated on ice for 2 hours. The mixture was centrifuged and washed 3 times with PBS buffer, Alexa Flour 488-labeled secondary antibody (purchased from Invitrogen, catalog number: A-11013) was added at 50 μl/well, and incubated on ice for 1 hour. The obtained mixture was centrifuged and washed 5 times with PBS, and FACS (FACS Canto™, purchased from BD Company) was used for detection and result analysis. Data analysis was performed by software (CellQuest) to obtain the mean fluorescence density (MFI)of the cells. And then software (GraphPad Prism8) was used for analysis, data fitting, and EC50 value calculation. […] The same method was used to detect the binding of the chimeric antibodies to endogenous CD22-negative cell MoLT4 cells (purchased from ATCC, CRL-1582) and CHO-K1 cells.
(§2) HEK293T-monkey CD22 cells were subjected to FACS detection and data analysis according to the method in Example 5.2.
(In flow cytometry, cells or beads pass a laser one at a time.)

Test [2] deals with T1, monkey CD22 on HEK293T-monkey CD22 cells. Put plainly: FACS, HEK293T-monkey CD22 cells. As for the experimental part: as §1, §2
The target is the same in test [3]. Put plainly: FACS, HEK293T-monkey CD22 cells, EC50 column. On the procedure:
as §1, §2

Test [4] concerns the target T2, monkey CD22 protein (ACROBiosystems, catalog number SI2-R52Ha) (monkey, UniProt F6W485 20-688).
T2 construct: commercial protein; also called monkey CD22-ECD; monkey CD22-ECD-His
T2 sequence: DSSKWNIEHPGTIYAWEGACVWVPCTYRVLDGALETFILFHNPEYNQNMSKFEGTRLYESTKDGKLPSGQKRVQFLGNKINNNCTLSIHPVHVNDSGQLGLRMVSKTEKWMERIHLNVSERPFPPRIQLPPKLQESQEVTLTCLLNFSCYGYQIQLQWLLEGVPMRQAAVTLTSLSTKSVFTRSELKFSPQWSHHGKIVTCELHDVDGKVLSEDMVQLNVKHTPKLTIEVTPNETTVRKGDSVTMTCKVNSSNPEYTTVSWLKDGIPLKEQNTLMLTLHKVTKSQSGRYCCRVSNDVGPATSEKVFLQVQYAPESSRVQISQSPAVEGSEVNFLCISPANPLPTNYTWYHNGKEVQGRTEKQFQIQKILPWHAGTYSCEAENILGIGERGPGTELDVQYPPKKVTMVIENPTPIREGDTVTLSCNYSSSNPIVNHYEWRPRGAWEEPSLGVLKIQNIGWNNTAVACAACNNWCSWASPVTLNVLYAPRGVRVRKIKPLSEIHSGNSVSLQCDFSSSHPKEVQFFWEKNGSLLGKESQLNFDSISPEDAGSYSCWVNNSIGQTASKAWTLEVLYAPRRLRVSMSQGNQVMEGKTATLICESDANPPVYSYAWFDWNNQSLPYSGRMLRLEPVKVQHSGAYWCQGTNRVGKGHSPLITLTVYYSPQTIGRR
Put plainly: ELISA, coated monkey CD22 protein, antibody 10 nM. On the procedure: (§3) In order to detect the binding activity of CD22 human-murine chimeric antibodies to CD22 protein, the purified human CD22-ECD-His protein obtained in Example 2 was diluted with PBS to a final concentration of 2 μg/mL, and then added to 96-well ELISA plate at 100 μl/well. The plate was sealed with plastic film and incubated overnight at 4° C., the plate was washed 2 times with PBS the next day, and then a blocking solution [PBS+2% (w/w) BSA] was added for blocking at room temperature for 2 hours. […] After incubation at 37° C. for 2 hours, the plate was washed 3 times with PBS. HRP (horseradish peroxidase)-labeled secondary antibody (purchased from Sigma, catalog number: A0170) was added, and incubated at 37° C. for 2 hours, and the plate was washed 5 times with PBS. TMB substrate was added at 50 μl/well, and incubated at room temperature for 30 minutes, then a stop solution (1.0 N HCl) was added at 50 μl/well.
(§4) In order to detect the species cross-binding activity of the chimeric antibodies, an ELISA plate was coated with commercial murine CD22 protein (ACROBiosystems, catalog number: SI2-M52Ha) and monkey CD22 protein (ACROBiosystems, catalog number: SI2-R52Ha), respectively, and the ELISA detection was performed according to the method in Example 5.1.
(ELISA stands for enzyme-linked immunosorbent assay.)

In test [5] the target is T2, monkey CD22 protein (ACROBiosystems, …). Put plainly: ELISA, coated monkey CD22 protein, antibody 0.1 nM. As for the experimental part:
as §3, §4

The target is the same in test [6]. Put plainly: ELISA, coated monkey CD22 protein, antibody 100 nM. On the procedure: as §3, §4
The target is the same in test [7]. Put plainly: ELISA, coated monkey CD22 protein, antibody 0.01 nM. On the procedure: as §3, §4
Test [8] has the same target. Put plainly: ELISA, coated monkey CD22 protein, antibody 0.001 nM. As for the experimental part: as §3, §4
Test [9] has the same target. Put plainly: ELISA, coated monkey CD22 protein, antibody 0.0001 nM. On the procedure:
as §3, §4

For test [10] the target is unchanged. Put plainly: ELISA, coated monkey CD22 protein, antibody 0.00001 nM. On the procedure:
as §3, §4

Like-named read-outs stand apart in the source and are kept apart here.

B1: m971-hIgG1 (antibody, V domains shown)
VH: QVQLQQSGPGLVKPSQTLSLTCAISGDSVSSNSAAWNWIRQSPSRGLEWLGRTYYRSKWYNDYAVSVKSRITINPDTSKNQFSLQLNSVTPEDTAVYYCAREVTGDLEDAFDIWGQGTMVTVSS
VL: DIQMTQSPSSLSASVGDRVTITCRASQTIWSYLNWYQQRPGKAPNLLIYAASSLQSGVPSRFSGRGSGTDFTLTISSLQAEDFATYYCQQSYSIPQTFGQGTKLEIKR
notes: control anti-CD22 antibody; variable regions from US 8,591,889 on human IgG1 constant regions
Regarding B1, the “Maximum mean fluorescence intensity” value in test [1] worked out at 49 MFI; in [2], 104 MFI. In addition, the binding result in test [3] is given as “no binding”. Also, the OD450 in test [4] amounted to 0.09 OD450; in test [5] it was 0.07 OD450; in test [6], 0.12 OD450; in test [7] it was 0.07 OD450; in [8], 0.06 OD450; in [9], 0.07 OD450. In addition, in test [10], the OD450 was determined as 0.07 OD450.
